This is an account of results in US20190381169A1, “PHARMACEUTICAL COMBINATIONS FOR IMMUNOTHERAPY” (Technische Universitat Dresden, priority 2014, published 2019).

Test [1] addresses T1, p75^NTR (Mus musculus, UniProt Q9Z0W1).
T1 construct: endogenous in cells; host or cells: murine plasmacytoid dendritic cells differentiated in vitro from bone marrow with Flt3-L (p75NTR+/+ wildtype; p75NTR-/- as control)
T1 sequence (Q9Z0W1 32-427): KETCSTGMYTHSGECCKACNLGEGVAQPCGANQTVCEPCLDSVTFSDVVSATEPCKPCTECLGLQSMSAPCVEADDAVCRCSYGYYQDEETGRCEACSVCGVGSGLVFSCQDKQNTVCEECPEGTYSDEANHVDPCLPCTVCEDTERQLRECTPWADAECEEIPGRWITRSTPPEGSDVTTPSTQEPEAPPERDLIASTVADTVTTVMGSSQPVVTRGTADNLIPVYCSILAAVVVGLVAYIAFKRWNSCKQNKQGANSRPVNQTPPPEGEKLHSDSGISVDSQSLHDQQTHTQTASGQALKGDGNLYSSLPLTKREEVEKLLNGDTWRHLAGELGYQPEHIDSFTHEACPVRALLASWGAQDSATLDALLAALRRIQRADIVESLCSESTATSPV
The test is described as follows: Western blotting of TLR signalling proteins in CpG treated murine PDCs. In kind it is cell-based. An excerpt: To investigate the mechanisms underlying these effects, we analysed PDCs treated with CPG-ODNs Class A (FIG. 3F) or Class B (FIG. 3G) using western blotting.

For test [2], the target named is T1, p75^NTR. The test is described as follows: Th1 cytokine secretion in co-culture of murine PDCs and OTII T-cells with ovalbumin peptide (CBA). The test is classed as cell-based. The following applies: OTII T-cells with p75^NTR+/+ PDCs and ovalbumin peptide 323-339, NGF 100 ng/ml, compared to p75^NTR−/− PDCs. The method, then: Murine T-cells were isolated from the OTII mouse strain expressing mouse alpha-chain and beta-chain T-cell receptor specific for chicken ovalbumin 323-339, using the CD+ T-cell isolation kit (Miltenyi Biotec).
Both, murine PDCs and T-cells were cultured overnight with or without the chicken ovalbumin peptide 323-339 in the presence or absence of NGF (100 ng/ml). The concentrations of T-cell secreted Th1-cytokines IL-2 and IFNγ in the supernatant were determined by using the CBA kit (BD Bioscience) following manufacturer's instruction with modification in data analysis using Microsoft Excel. […] In the presence of p75^NTR+/+ PDCs presenting the ovalbumin peptide (OVA) to the T-cells, T-cells secrete the Th1 cytokines IFNγ (FIG. 5A) and IL-2 (FIG. 5B).

In test [3] the target is T1, p75^NTR. The test is described as follows: Proliferation and cytokine secretion of OT-II CD4+ or OT-I CD8+ T-cells co-cultured with murine PDCs. In kind it is cell-based. An excerpt: Murine T-cells were isolated either from OT-II mouse strain expressing ovalbumin peptide specific T-cell receptors on CD4+ T-cells or from OT-I mouse strain expressing ovalbumin peptide specific T-cell receptors on CD8+CTLs using the CD8+ T-cell isolation kit (Miltenyi Biotec).

Test [4] deals with T2, p75^NTR (Homo sapiens, UniProt P08138).
T2 sequence (P08138 29-427): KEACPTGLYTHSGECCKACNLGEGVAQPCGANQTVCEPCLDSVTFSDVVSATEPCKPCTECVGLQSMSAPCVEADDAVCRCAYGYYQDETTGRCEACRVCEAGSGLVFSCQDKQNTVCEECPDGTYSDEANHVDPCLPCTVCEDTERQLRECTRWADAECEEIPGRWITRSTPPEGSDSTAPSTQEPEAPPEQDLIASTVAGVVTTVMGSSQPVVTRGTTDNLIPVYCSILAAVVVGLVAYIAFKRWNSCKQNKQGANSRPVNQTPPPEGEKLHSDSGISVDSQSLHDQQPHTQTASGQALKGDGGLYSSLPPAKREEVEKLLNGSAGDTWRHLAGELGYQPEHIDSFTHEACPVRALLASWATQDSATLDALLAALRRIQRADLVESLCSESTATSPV
In words: Th2 prone GvHD xenotransplantation model: NSG mice given human autologous T-cells and PDCs.
Protocol: Recipient mice from NSG mouse strain were pre-condition by irradiation with 3 Gy 24 hours before transplantation of human cells
For scoring of GvHD incidence and survival transplanted mice were monitored daily for weight, behaviour, skin, activity, fur and other parameters.
Human, autologous T-cells and PDCs were stimulated either with CpG B or not. Overnight co-cultured was done in the absence or presence of NGF. One day later human cells were transplanted into irradiated NSG mice by i.v. injection.

[5] abbreviates: CpG A stimulated p75^NTR+/+ PDCs, NGF added.
Setting [6] is: p75^NTR+/+ PDCs co-incubated with CpG B and NGF.
Setting [7] is: co-culture with PDCs, NGF present.
Setting [8] is: co-culture with p75^NTR+/+ PDCs, NGF added, compared to p75^NTR−/− PDCs.

Entries after “also recorded” stand apart in the source; their conditions may differ.

For “NGF: Nerve growth factor, best characterized neurotrophin; natural p75^NTR agonist (R&D Systems)”, in test [1] (setting [5]), the “activation (phosphorylation) of IRF-3, IRF7, IKK and c-Jun” value is on record as “reduced activation”; the “expression of MyD88 and TRAF6” value is “reduced expression”. The “CpG A-induced phosphorylation of IRF3 and IRF7” value in test [1] (p75^NTR+/+ PDCs) is given as “attenuated”. Moreover, in test [1] (setting [6]), the “activation (phosphorylation) of IRF3, IRF7, IKK and c-Jun” value is recorded as “increased”; the “expression of MyD88 and TRAF3” value is “increased expression”. For the same substance, the “levels of CpG-induced phosphorylation of IRF3 and IRF7 in p75^NTR−/− pDCs” value in test [1] (p75^NTR−/− pDCs) is “did not alter”. The “secretion of Th1 cytokines IFNγ and IL-2” value in test [2] was “reduced secretion”. In addition, in test [3] (setting [7]), the “cytokine secretion of CD8+ T-cells (CTLs) from OT-I strain” value is on record as “secreted less cytokines” and the “proliferation of CD8+ T-cells (CTLs) from OT-I strain” value is listed as “reduced proliferation”. In addition, in test [3] (setting [8]), the “cytokine secretion of CD4+ T-cells from OT-II strain” value was “increased” and the “proliferation of CD4+ T-cells from OT-II strain” value is “increased”. The “mortality (survival)” value in test [4] (CpG B stimulated PDCs co-cultured in presence of NGF before transplantation) is given as “significantly increased mortality”. Also, in test [4] (CpG B stimulated PDCs co-cultured with T-cells in presence of NGF before i.v. transplantation, 12 weeks), the “severity of GvHD (cumulative GvHD incidence)” value is listed as “increased severity of GvHD”. Further, the “cumulative GvHD incidence or survival without CpG B” value in test [4] (PDCs cultured without TLR stimulating CpG B, data not shown) is on record as “no NGF dependent effect; also recorded: abolished the accelerating NGF effect”.
